This note sets out measurements from paper PMC9991911, “IMM0306, a fusion protein of CD20 mAb with the CD47 binding domain of SIRPα, exerts excellent cancer killing efficacy by activating both macrophages and NK cells via blockade of CD47-SIRPα interaction and FcɣR engagement by simultaneously binding to CD47 and CD20 of B cells” (Leukemia, 2022).

For experiment [1], the target named is T1, CD20 on Raji-CD47KO cells (Homo sapiens (endogenous, Raji-CD47KO), UniProt P11836).
T1 construct: CD20, endogenous on Raji-CD47KO cells; also called CD20 target on Raji-CD47KO cells; CD20-positive cells (Raji-CD47KO); source: endogenous, on Raji-CD47KO cells (Raji with human CD47 knockout, in-house)
T1 sequence (P11836 whole entry): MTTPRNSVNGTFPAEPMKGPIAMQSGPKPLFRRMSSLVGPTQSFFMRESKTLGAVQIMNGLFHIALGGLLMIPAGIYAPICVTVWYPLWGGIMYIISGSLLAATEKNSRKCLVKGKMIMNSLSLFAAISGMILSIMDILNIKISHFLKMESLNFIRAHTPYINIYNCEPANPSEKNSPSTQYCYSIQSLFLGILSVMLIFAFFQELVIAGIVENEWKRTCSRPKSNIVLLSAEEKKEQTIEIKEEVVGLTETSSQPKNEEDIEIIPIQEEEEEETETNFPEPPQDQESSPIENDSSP
Put plainly: flow cytometry on cells; cultured cells (Jurkat; Raji-CD47KO; cells with both targets) stained with IMM0306, then secondary antibody anti-human IgG (Fc)-FITC; data analysed with GraphPad Prism 8.0. The settings on record: one partner purified. For orientation: A flow cytometer gives signals particle by particle.

The target in experiment [2] is CD47 on Jurkat cells (human (endogenous in Jurkat)) (UniProt Q08722). The description is as above.
Sequence of CD47 on Jurkat cells (human (endogenous in Jurkat)) (Q08722 19-323): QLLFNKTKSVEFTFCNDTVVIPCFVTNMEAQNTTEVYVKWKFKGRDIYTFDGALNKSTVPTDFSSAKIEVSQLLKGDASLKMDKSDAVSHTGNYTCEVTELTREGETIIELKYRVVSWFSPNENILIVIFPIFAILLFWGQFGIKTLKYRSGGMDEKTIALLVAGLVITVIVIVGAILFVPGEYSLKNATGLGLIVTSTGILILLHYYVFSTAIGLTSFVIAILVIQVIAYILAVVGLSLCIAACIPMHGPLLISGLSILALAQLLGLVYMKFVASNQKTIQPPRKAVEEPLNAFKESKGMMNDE
The target of a further experiment is CD47/CD20 double targets. The description is as above.
The next experiment deals with CD20 (Biacore assay) (UniProt P11836). The experiment in a line: SPR; Biacore assay; who was immobilised and the conditions not given. For orientation: SPR reads the build-up and loss of mass on a sensor chip optically.
Sequence of CD20 (Biacore assay) (P11836 whole entry): as the sequence (P11836 whole entry) above
The target of the next experiment is CD47 (Biacore assay) (UniProt Q08722). The experiment is described as above.
Sequence of CD47 (Biacore assay) (Q08722 19-323): as the sequence (Q08722 19-323) above

B1: IMM0306, a fusion protein of CD20 mAb with the CD47 binding domain of SIRPα (bispecific antibody, V domains shown)
VH: QVQLQQPGAELVKPGASVKMSCKASGYTFTSYNMHWVKQTPGRGLEWIGAIYPGNGDTSYNQKFKGKATLTADKSSSTAYMQLSSLTSEDSAVYYCARSTYYGGDWYFNVWGAGTTVTVSA
VL: QIVLSQSPAILSASPGEKVTMTCRASSSVSYIHWFQQKPGSSPKPWIYATSNLASGVPVRFSGSGSGTSYSLTISRVEAEDAATYYCQQWTSNPPTFGGGTKHELK
notes: IgG1; only the SIRPα D1 part can be built; also called CD47xCD20 mAb trap; source: in-house developed CHO-K1 cell expression system; copies: 2 +
In the case of B1, the EC50 in experiment [1] stood at 18.9 nM; in experiment [2], 16.8 nM; in the experiment with CD47/CD20 double targets it was 11.5 nM. Besides, the Kd is 2.45 nM with CD20 (Biacore assay) and 4.91 nM in the experiment with CD47 (Biacore assay).

As a reminder, the EC50 is the concentration giving half of the maximal effect. A low value points to a more potent agent. By Kd is commonly meant the concentration at which binding is half-saturated.
